Results on two molecules are retold here after PMC2424011.

Experiment [1] addresses mouse recombinant sFRP-3 (R&D) (mouse) (UniProt P97401). In words: other fluorescence titration; competition: 250 nM native EGF added to 25 nM EGFAlexa488 prior to 100 nM sFRP-3, in PBS; spectrum of Alexa488, peak at 517 nm.
For another experiment, the target named is Alexa488-conjugated EGF. The experiment is described as above.

Regarding recombinant mouse EGF (ligand), the decrease of the EGFAlexa488 absorbance value at the emission peak when native EGF was added before sFRP-3 in experiment [1] stood at 7 units.

B1: mouse recombinant sFRP-3 (R&D) (natural protein)
chain: AACEPVRIPLCKSLPWNMTKMPNHLHHSTQANAILAMEQFEGLLGTHCSPDLLFFLCAMYAPICTIDFQHEPIKPCKSVCERARQGCEPILIKYRHSWPESLACDELPVYDRGVCISPEAIVTADGADFPMDSSTGHCRGASSERCKCKPVRATQKTYFRNNYNYVIRAKVKEVKMKCHDVTAVVEVKEILKASLVNIPRDTVNLYTTSGCLCPPLTVNEEYVIMGYEDEERSRLLLVEGSIAEKWKDRLGKKVKRWDMKLRHLGLGKTDASDSTQNQKSGRNSNPRPARS
B1: the decrease of the EGFAlexa488 absorbance value at the emission peak with Alexa488-conjugated EGF was 10 units.
